We go through 20 sequences from a protein production outcome set (Wang et al. 2014).
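Further: failed if final PepcDB status was selected cloned or expressed and not failed if soluble or beyond.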

The nature of this data set: label from the status in PepcDB records.
As to “MKNKFIFITVVSILLIAAGIFTTIAMANANSVVVKAEVLNVRSGPGLAYDVTSQARKNEVLRVVGEENQWYKVQLDNGNSGWVASWLVENTDVSAASNSIAIVSSDGGLNVREKPSTSSTSLGLLNNGDQVTVTSQQNGWAQIQYNGKSAWVSSQYLTIRESVTKVDESELQTVTIRDDSTNIRNKPGRDGAVIEKANSGQGFAIQGVQGDWYKIRTTSGEEGYVANWVVDVSDKGQTSSPRSKTTKLSEATIVIDPGHGGNDPGAKGANGTIEKEMTLKTAKKLKEKLESRGAKVILTRNSDKYVSLKSRTNVAAENKADVFISIHFDSLEDSSKGVSGQTTYYYDNSDKSLAESINTTLGNDLPTTNRGSRVGDYYVVRENSQPAVLLELGYLSSAKDERNINSASYRSQIADSVTDGLSNYFSN”, the protein production result is on record as “failed”. With “MKNKSYYFLTIIRYAVYLLIGMCAVFYGELKNTEMYYFIVFFLMYIIVTQFRIYYLRNRKYVSVSMVVDLVLVCFMYSYVRNFSFLFLFISVLDSSIMLSKTQAYASGIICSVVIIIQNVKIPFSLKAGTNLINILFSILLIFTLVFIGDSFREEQKRKIEAQGLYDRLRESEEKLRGAYEKLERYSETVEELSILRERNRISREIHDSVGHTLSAVLMQLQALLYLIKSDKEESLKTVEEMTGFVRGGIENVRRTVRELKPTDFDRFEGVFAIEEMIRKYKKLTSADIRFILSKEKRSLSSDESFISYRVVQEALNNAIRHGKASLVEVSMQFNQDRLYIRIKDNGVGTDGIKKGFGMTGMEERVKKLGGNIEFYSERDKGFEVTVNLPKSSEEKNSIINY”, the protein production result is “failed”. For the sequence “MKNKTYYLSIIFTSLVCLFLFTKALGFILWINGAPIDKWVAWVGLFAIPIFIYYSFPGRSLKKTQKIVTIVIIIVQIIWLKWAINQSKYYVYVNSNNILPSPYIIQETPNSNTPISLGQRLLTNYTFYKSIHSYLYVRENVTKSDRGIVDWIKHFDSEIKEEEDDGRIYIETYKGKLFFK”, the protein production result was “failed”. With “MKNLKRRVAVVTALALVAALTYVLWPRSESVHVTAYFPRTVGIYPGSDVRVLGVRIGEVEKITPEGDRVRVELKYDEGRRVPADSKAAIINSSVVSDRYVQLLPVYRKGPVLRNGAVIPESRTAVPVELDRVFGSLHTTADALGPQGANKDGSLSRLLGVSADNLDGQGENLNRTVEDLSQAVTTLSDGRKDLFGTVRNLQVFTAALSADDKSVRSFNTGLAEVAGQLAGERKDLADALKNLGTALGDVSAFVKNNKRSLNSNVKGLSKVTKVLVTQRAALAELLEVAPTGLSNLNNAYNPSAGTLDTRNNAQQAQDPAALMCSVLKTTGDEGGKNPDCKELKKLFDSLPKVPQGSAVTGTVDRTLGGILGASA”, the protein production result was “failed”. As for “MKNLTSIRPNTSRPARLAALKQSFQDWNNTSDVMARLARRLSTTLSLEAQLSILAEEMTDMVPFDSLNYRHRIARQDFIFSTGMGGPHRCEYRLSLEGHQYGTLTLHRRQRFSEEELTGIEMMLSGAICHIRNACQFIAIEQTALTDSLTGIGNKRALDEALQRASAMADRHGAPWSLILCDLDHFKLINDNHGHVVGDHILARTAEKLEQALRNSDTVYRFGGEEFAILLPHTNEQEARDVADRIRGAIESIRVDGGETPLTVTASCGVAMHLTDEQPEQWLARADEALYRAKAAGRNCTRVFASIS”, the entry is “failed”; as for “MKNNDLTTYGEYLEKLSPKHGREKVFNDFLQIVVCCLSMGRKEELYFKTIKPYDKTELDLFSQAFAALVMQMDRQPLVDPFGDYFQEFLSNAQNGQFFTPFGVCELMNQLITAPKVSDQPKQGDRRVLDPACGSGRLLLSAAQKDRALTFVGIDISYTCCLMTIINLCLNSLNGEVLHMNALTDQYWHRWLIIVDSVTKIPTVYEVEAGIINQPPACADDLKPLPVTGIIQPVKNMIPANFVRYTPKCLEHHHHHH”, “failed”; as for “MKNNPLISIYMPTWNRQQLAIRAIKSVLRQDYSNWEMIIVDDCSTSWEQLQQYVTALNDPRITYIHNDINSGACAVRNQAIMLAQGEYITGIDDDDEWTPNRLSVFLAHKQQLVTHAFLYANDYVCQGEVYSQPASLPLYPKSPYSRRLFYKRNIIGNQVFTWAWRFKECLFDTELKAAQDYDIFLRMVVEYGEPWKVEEATQILHINHGEMQITSSPKKFSGYFHFYRKHKDKFDRASKKYQLFTLYQIRNKRMTWRTLLTLLSVRNGKRLADGIRGRLEHHHHHH”, “not failed”.

As for “MKNQLELIAESYDKGIDYGRRGISLYDDLPEYITNNPDYIIYKKTTESIEPSVYSGYKEIREYLSPTTNMKFIDLGCCLNLMFNGYDQWASTYHGVDISSKTIELLNEFSTNNKLHIGALICGSIHETPFDANYFDIGACIGVLEYYKKDFVEKALIEAHRIIKPGGKLVLDIPNIVSPACRGMILLEEHAGRTDQFDMLPLDFENMLCNYFEIEKVEKANAWAMFQYFLSCKK”, the protein production entry is reported as “failed”. As for “MKNQLIDRLTRYTTIDTQSDPKSTTTPSTEKQWDLLHLLEKELQQLGLPTDLDENGYLFATLESNIDVDVPTVGFLAHVDTSPDFNASNVKPQIIENYDGKPYKLGNTKRVLDPKVFPELNSLVGHTLMVTDGTSLLGADDKAGIVEIMEAICYLQEHPEIKHGTIRIGFTPDEEIGRGPHKFDVDRFNADFAYTMDGSQYGELQYESFNAAEAVITCHGVNVHPGSAKNAMVNAIRLGEQFDSLLPDSEVPERTEGYEGFYHLMNFEGTVEKATLQYIIRDHDKKQFELRKKRILEIRDDINAHFENYPVKVDISDQYFNMAEKILPLPHIIDIPKRVFAKLDIPANTEPIRGGTDGSQLSFMGLPTPNIFTGCGNFHGPYEYASIDVMEKAVQVIIGIVEDIAENH”, the entry is “failed”. As for “MKNRFAMMLMALLPVLVACQAKDGSADTVQSAVPAPSAPPSSSTATTTPTTPPPESARPVEASRVPSGPKPVAGTDYVVIQDGQQFQPVSGKVEVVEVFGYICPACFQFQPQIALWKAGLASDVNFVYVPAVFGGPWDDYARAFYAAETLNLQEKTHQQLYKAIHVDRTLKGERGRDTVQDIANFYAKFGVNPEQFVNTMSSFGISAKVNRAKQFAKHSQVTGTPSLIINGKYLVKGRTYDDMLRIADHLIEGERKVLGK”, the entry is “failed”; as for “MKNRRTRWYRSLALRLLFIFWALLSVTAASGYLLAVWNKPKAELKPLEPEIYQTLQPLLSDALTFHSLQPGRLIAGDYRVAAQLSVQGSEKLLMDEMLRVSHGSTLLRMLGQESPQQIPLDERLLMGPFELDGNKILVTKPLGIEEQVDRERLEAESTRARILTLMVGSGLLAVLLGIWLIRPIRRMILAMREVADGSATPELKRLPKRGDEIGELARALSQGAVDLATSRDAQRRLLSDVSHELRSPMARMQVALDLADCNEDDPNWQQLRRDTERLSVIIERILSLSRLENGLVDLNHESLDSGELVQQLINDMCYQHPEVRERLLRHGSNWPVIDTDPELLRLVLENIVRNALHYTEDNVELSCDDYGKGCHIRIRDHGPGVDESTISKLFVPFYRGDPARHHKAGVGLGLALSHRAAAVLGGELKAHNHSEGGLEVVLDLPKSQPEQKE”, “failed”. To “MKNRSLTLRLISVLCLTALFVWLGSTLVAWWQVRHDVNKVFDAQQVLFAERLANSDLSTILLESSTTLNKNSQSVLKKSYDDDALAFAIFSKTGKLLFSDGRNGKDFIFNYKTGFYNANIYDDDDKWRIFWRMAANGELVIAVGQELDYREDLIEEMILGQMWIWFASLPILIIVLGWLIHKELRPIKRLSQEVQTRKSGDVSLLNTEGLPVEILPLVKNLNQFFDRTSAMLQRERRFTSDAAHELRSPLAALRIQIEVAQLAGDDVALREQALLHLTQGIDRASQLIEQLLTLSRLDNLQALETLQLLDWEAIVQSLISERYFVAEKRKITLVFEKESEPKQKQGQSILVSLMLRNLLDNAIKYCPEDTIVSVKISSSQIIIEDNGGGVEPEDLKKLGQRFYRPAGQNEKGSGLGLSIVMRIAELHGFKVRLENVVKEGRRIGLKAIISL” belongs “failed”; to “MKNRTKSRWKKIVLGIGLFLAVLVIGLTIFIKNSTYQATDSALKISQSATQEKNYDYYTNGQKNDTALIFYPGALVAPASYSEWAQEVATKGYDVYVVHFPLNLAVLAPNAAEQIIKDHPQQNFVLAGHSLGGVMASRFVAENEQRIKGMIYLASYPDEKGALNKKNLPVLSITATNDGVLNWTSYQKAKQFLPKDTQYVSIEGGNHAGFGNYGVQKGDSKATISNEQQQTEISQLIVAWLQSRPNK”, “failed”. On to “MKNSFLCVGSFLLAASFFTSCTEDKDWSGGLKNSDLVFQTYLPTEGAKGTELSIRGNNFGEDISQVQVWVNEKEAEVISVTSTRIMARVAEASGSGVVKVRVGEVVYSYPDLFSYGYIRNVYTVAGNGQGTTVDGAYLQASVQWPIVMVYDKWDDAILFLQDEGEHRIRRMKDGKIETLCSTKSLVNNARSICFSLDGDTLFIGNDNANNYVANPVAVGMVTRKGGFKDLKSYIPSEKLAQPHINGIAVNPVDGSLFTYHWGRHVFRYNKATETCEYVITRDQFNELVVGLFPDADGNMQNIGGDGGYGGLAFSPDGKTLYWNGRDPYQGILKADYDLVTKKCTNLTRFAGNGVWGIIDGQGVSSRMDQPNQIAVDAEGNLLVTTVYGRTVRKITPEGYVSTYAGIGYQTGYVDGLAAEAKFNKPYGIAIDAQGNVYVGDCENWRIRVIKEE”, for which the protein production entry is reported as “failed”. To “MKNYMKLIFGLGLIALVGYWPAAKTPKRVNSLFLQNVEALAGSEHVTNLGCLGDGSVDCPINHIKVEYVVQGFSLGE” belongs “failed”; to “MKPADLTNADRIALELGHAGRNAIPYLDDDRNADRPFTLNTYRPYGYTPDRPVVVVQHGVLRNGADYRDFWIPAADRHKLLIVAPTFSDEIWPGVESYNNGRAFTAAGNPRHVDGWTYALVARVLANIRAAEIADCEQVYLFGHSAGGQFVHRLMSSQPHAPFHAVTAANPGWYTLPTFEHRFPEGLDGVGLTEDHLARLLAYPMTILAGDQDIATDDPNLPSEPAALRQGPHRYARARHYYEAGQRAAAQRGLPFGWQLQVVPGIGHDGQAMSQVCASLWFDGRMPDAAELARLAGSQSA”, “not failed”; to “MKPAKVSLLHRLLQCLKQCVDCNTVNRFTAINIFVNILLISAVISFPYSAAAHGATQSGDQYSSFEELERNEDPASYRITEKNARVPMLIMAIHGGGIEPGTSEIANEVSKNYSLYLFEGLKSSGNTDLHITSTRFDEPAALAITASHQYVMSLHGYYSEDRDIKVGGTDRAKIRILVDELNRSGFAAEMLGTDDKYAGTHPNNIANKSLSGLSIQLEMSTGFRKSLFDRFTLKDRAATQNETFYRFTKLLTDFIHENYEEDGGDFPSAKIKHPLQV”, “failed”. As for “MKPALHTVTSAPALPAYVATGNECALFEHAWRHQLPVLLKGPTGCGKTRFVAHMAARLGLPLHTVACHDDLTAADLTGRYLLKGGDTVWTDGPLTRAVREGGICYLDEVVEARKDVTVVLHPLTDDRRILPLERTGEELAAPKSFMLVVSYNPGYQTLLKALKPSTRQRFVAIEFGFLAPEQEIAVVSAESGLPPDRVRPLVALAGRLRALRGHDLEEGVSTRLVVYCATLIAAGTPIADAVLAGMIEPLTDDSDVKAALLDVARAVIG”, the entry is “failed”; as for “MKPARAQGSIMLLVDVYLDKSPIQGIGVFAKHHIPMGTLIWKLDPRFDRIIDVETYEGESGPVKNYLDRYSYPDRRDPAYIVFEADDARYMNHDDEPNCDVSSPEETYALRDIAPGEELTCNYNHFFEAGFDFLGDRHL”, “failed”; as for “MKPENKIPVLTRLSDEMTAVVNFQQPGLPPWPADGDIETQRQYYLLERRFWNADAPSMTTRTCAVPTPYGDVTTRLYSPQPTSQATLYYLHGGGFILGNLDTHDRIMRLLARYTGCTVIGIDYSLSPQARYPQAIEETVAVCSYFSQHADEYSLNVEKIGFAGDSAGAMLALASALWLRDKHIRCGNVIAILLWYGLYGLQDSVSRRLFGGAWDGLTREDLDMYEKAYLRNDEDRESPWYCLFNNDLTRDVPPCFIASAEFDPLIDDSRLLHQTLQAHQQPCEYKMYPGTLHAFLHYSRMMTIADDALQDGARFFMARMKTPR”, “not failed”.
